Assay results reported in patent US20140148501, “DNA APTAMERS FOR PROMOTING REMYELINATION” (MAYO FOUNDATION FOR MEDICAL EDUCATION AND RESEARCH, published 2014).

Assays:
[1] = target: T1, Myelin basic protein isoforms containing exon 2-encoded sequence (17 kDa and 21.5 kDa) (Mus musculus, UniProt P04370-4 P04370-4:2-195); assay: southwestern blot; unique to 3064; 5 uM aptamer, PBS, 1 mM MgCl2, 14 h; conditions: tags: none; from crude SJL mouse CNS myelin, SDS-PAGE separated and blotted to PVDF; label: 5'-fluorescein; putative intramolecular G4
Experimental: (§1) To promote intramolecular folding, aptamer stock solutions (5 μM) in PBS were heated to 90° C., MgCl₂ was added to a final concentration of 1 mM, and solutions were allowed to cool room temperature. Myelin stock was diluted in PBS and sonicated on ice. Fluorescent folded aptamers were added to different amounts of myelin suspension and incubated at 37° C. for 3 hours. Insoluble material with bound aptamers was recovered by centrifugation for 30 seconds in a microcentrifuge. The pellet was washed with 100 μL PBS and again recovered by centrifugation. After phenol extraction and ethanol precipitation, fluorescent aptamers were quantitated in black plastic 96-well plates using a Typhoon Fluorescent Imaging system (GE Healthcare Biosciences; Piscataway, N.J.). For Southwestern blotting, 15 μg crude myelin protein was separated in each lane of a 10% Bis-Tris SDS polyacrylamide gel in 2-(N-morpholino)ethanesulfonic acid (MES) buffer. […] Fluorescein fluorescence was then detected on membranes using the Typhoon Fluorescent Imaging system. […]
(§2) The specificity of anti-myelin DNA aptamer 3064 and controls 3060 and 3202 was analyzed by assessing the binding of fluorescent aptamers to crude myelin protein suspension using centrifugal sedimentation to recover bound aptamers (FIG. 5A).

[2] = target: T2, Proteolipid protein PLP (12.5 kDa band) (Mus musculus, UniProt P60202 P60202:2-277); assay: southwestern blot; 5 uM aptamer, PBS, 1 mM MgCl2; conditions: tags: none; from crude SJL mouse CNS myelin, SDS-PAGE separated and blotted to PVDF; label: 5'-fluorescein; putative intramolecular G4
T2 sequence: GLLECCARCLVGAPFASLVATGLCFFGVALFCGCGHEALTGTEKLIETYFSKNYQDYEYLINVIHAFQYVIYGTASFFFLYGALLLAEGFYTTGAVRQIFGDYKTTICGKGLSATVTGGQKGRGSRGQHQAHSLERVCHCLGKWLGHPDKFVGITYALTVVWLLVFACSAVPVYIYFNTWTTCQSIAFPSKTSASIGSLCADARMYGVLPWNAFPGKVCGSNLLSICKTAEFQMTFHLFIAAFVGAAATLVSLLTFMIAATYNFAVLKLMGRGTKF
Experimental: (§3) To promote intramolecular folding, aptamer stock solutions (5 μM) in PBS were heated to 90° C., MgCl₂ was added to a final concentration of 1 mM, and solutions were allowed to cool room temperature. Myelin stock was diluted in PBS and sonicated on ice. Fluorescent folded aptamers were added to different amounts of myelin suspension and incubated at 37° C. for 3 hours. Insoluble material with bound aptamers was recovered by centrifugation for 30 seconds in a microcentrifuge. The pellet was washed with 100 μL PBS and again recovered by centrifugation. After phenol extraction and ethanol precipitation, fluorescent aptamers were quantitated in black plastic 96-well plates using a Typhoon Fluorescent Imaging system (GE Healthcare Biosciences; Piscataway, N.J.). For Southwestern blotting, 15 μg crude myelin protein was separated in each lane of a 10% Bis-Tris SDS polyacrylamide gel in 2-(N-morpholino)ethanesulfonic acid (MES) buffer. After electrophoresis, duplicate lanes were either stained with Coomassie blue dye or transferred to polyvinylidene fluoride (PVDF) membrane by electroblotting. Western blotting was performed by standard methods using antibodies with the indicated specificities. For southwestern blots, membranes were blocked for 30 minutes at 37° C. in tris-buffered saline and TWEEN® 20 (TBST) buffer containing with 1% bovine serum albumin (BSA), 10% non-fat dry milk, 2 mg/mL sonicated and heat-denatured salmon testis DNA, and TWEEN® 20 detergent. Folded fluorescent aptamers (5 μM final concentration) were then added in PBS containing 1 mM MgCl₂ and incubated with PVDF membranes for 14 hours, followed by washing in TBST buffer and then in 0.5× tris/borate/EDTA (TBE) buffer. Fluorescein fluorescence was then detected on membranes using the Typhoon Fluorescent Imaging system. Tryptic peptide mass fingerprinting was performed.
as §2

[3] = target: T3, Myelin oligodendrocyte glycoprotein MOG (23.8 kDa band) (Mus musculus, UniProt Q61885 Q61885:29-246); assay: southwestern blot; 5 uM aptamer, PBS, 1 mM MgCl2; conditions: tags: none; from crude SJL mouse CNS myelin, SDS-PAGE separated and blotted to PVDF; label: 5'-fluorescein; putative intramolecular G4
T3 sequence: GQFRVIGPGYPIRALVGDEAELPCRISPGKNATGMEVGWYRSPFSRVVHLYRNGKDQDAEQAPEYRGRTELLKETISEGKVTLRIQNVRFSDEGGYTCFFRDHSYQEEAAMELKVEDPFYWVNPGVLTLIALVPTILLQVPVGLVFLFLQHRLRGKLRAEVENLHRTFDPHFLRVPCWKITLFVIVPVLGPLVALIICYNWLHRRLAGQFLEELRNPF
Experimental: as §3, §2

[4] = target: T4, Myelin basic protein 18.5 kDa isoform (Mus musculus, UniProt P04370-5 P04370-5:2-169); assay: southwestern blot; 5 uM aptamer, PBS, 1 mM MgCl2; conditions: tags: none; from crude SJL mouse CNS myelin, SDS-PAGE separated and blotted to PVDF; label: 5'-fluorescein; putative intramolecular G4
Experimental: as §3, §2

[5] = target: T2, Proteolipid protein PLP (12.5 kDa band); assay: southwestern blot; conditions: tags: none; from crude SJL mouse CNS myelin, SDS-PAGE separated and blotted to PVDF; label: 5'-fluorescein
Experimental: as §3, §2

[6] = target: T3, Myelin oligodendrocyte glycoprotein MOG …; assay: southwestern blot; conditions: tags: none; from crude SJL mouse CNS myelin, SDS-PAGE separated and blotted to PVDF; label: 5'-fluorescein
Experimental: as §3, §2

[7] = target: T1, Myelin basic protein isoforms …; assay: southwestern blot; conditions: tags: none; from crude SJL mouse CNS myelin, SDS-PAGE separated and blotted to PVDF; label: 5'-fluorescein
Experimental: as §3, §2

[8] = target: T4, Myelin basic protein 18.5 kDa isoform; assay: southwestern blot; conditions: tags: none; from crude SJL mouse CNS myelin, SDS-PAGE separated and blotted to PVDF; label: 5'-fluorescein
Experimental: as §3, §2

[9] = target: T1, Myelin basic protein isoforms …; assay: southwestern blot; 17 and 21.5 kDa bands bound only by 3064; conditions: tags: none; from crude SJL mouse CNS myelin, SDS-PAGE separated and blotted to PVDF; label: 5'-fluorescein; putative intramolecular G4
Experimental: as §1, §2

[10] = target: T2, Proteolipid protein PLP (12.5 kDa band); assay: southwestern blot; control selected for chelated Ni; conditions: tags: none; from crude SJL mouse CNS myelin, SDS-PAGE separated and blotted to PVDF; label: 5'-fluorescein; putative intramolecular G4
Experimental: (§4) After electrophoresis, duplicate lanes were either stained with Coomassie blue dye or transferred to polyvinylidene fluoride (PVDF) membrane by electroblotting. Western blotting was performed by standard methods using antibodies with the indicated specificities. For southwestern blots, membranes were blocked for 30 minutes at 37° C. in tris-buffered saline and TWEEN® 20 (TBST) buffer containing with 1% bovine serum albumin (BSA), 10% non-fat dry milk, 2 mg/mL sonicated and heat-denatured salmon testis DNA, and TWEEN® 20 detergent. Folded fluorescent aptamers (5 μM final concentration) were then added in PBS containing 1 mM MgCl₂ and incubated with PVDF membranes for 14 hours, followed by washing in TBST buffer and then in 0.5× tris/borate/EDTA (TBE) buffer. Fluorescein fluorescence was then detected on membranes using the Typhoon Fluorescent Imaging system. Tryptic peptide mass fingerprinting was performed.
(§5) The specificity of anti-myelin DNA aptamer 3064 and controls 3060 and 3202 was analyzed by assessing the binding of fluorescent aptamers to crude myelin protein suspension using centrifugal sedimentation to recover bound aptamers (FIG. 5A). […] To further assess specificity, crude myelin proteins were separated by SDS-polyacrylamide gel electrophoresis and stained with Coomassie dye (myelin; FIG. 5B, left lane), or blotted to polyvinylidene (PVDF) membrane and probed with antibodies against myelin basic protein (MBP), proteolipid protein (PLP), or MOG in western blots (FIG. 5B, lanes 2-4), or probed with fluorescent aptamers 3202, 3060 or 3064 in southwestern blots (FIG. 5B, lanes 5-7). […] In particular, control aptamer 3060 and myelin-specific aptamer 3064 both bound to three myelin proteins with apparent molecular weights of 12.5 kDa, 18.5 kDa, and 23.8 kDa. Based on western analysis and mass spectrometry of tryptic peptides, these proteins were PLP, the 18.5 kDa isoform of MBP, and MOG, respectively.

[11] = target: T3, Myelin oligodendrocyte glycoprotein MOG …; assay: as above; conditions: tags: none; from crude SJL mouse CNS myelin, SDS-PAGE separated and blotted to PVDF; label: 5'-fluorescein; putative intramolecular G4
Experimental: as §4, §5

[12] = target: T4, Myelin basic protein 18.5 kDa isoform; assay: as above; conditions: tags: none; from crude SJL mouse CNS myelin, SDS-PAGE separated and blotted to PVDF; label: 5'-fluorescein; putative intramolecular G4
Experimental: as §4, §5

T1 sequence (P04370 other isoform, or with tags, fused parts or gaps): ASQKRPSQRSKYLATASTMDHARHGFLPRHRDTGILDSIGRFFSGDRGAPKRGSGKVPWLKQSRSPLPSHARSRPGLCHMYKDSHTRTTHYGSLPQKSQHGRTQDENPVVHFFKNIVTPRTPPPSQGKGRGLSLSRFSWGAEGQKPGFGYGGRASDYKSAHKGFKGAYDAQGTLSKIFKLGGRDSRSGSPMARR
T4 sequence (P04370 other isoform, or with tags, fused parts or gaps): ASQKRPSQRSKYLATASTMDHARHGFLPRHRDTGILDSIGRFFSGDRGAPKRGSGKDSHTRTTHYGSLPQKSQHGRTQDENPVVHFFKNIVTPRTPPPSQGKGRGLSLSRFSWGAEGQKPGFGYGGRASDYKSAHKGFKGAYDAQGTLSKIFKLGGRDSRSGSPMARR

B1: 3064 (ssDNA)
DNA: GGGTCGGCGGGTGGGGTGGGAGGTGGTCTTGTCTCTGGGT
B1: binds [1]; binds [2]; binds [3]. B1: binds [4].

B2: 3202 (dT40) (ssDNA)
DNA: TTTTTTTTTTTTTTTTTTTTTTTTTTTTTTTTTTTTTTTT
B2: no binding [5]; no binding [6]; no binding [7]. B2: no binding [8].

B3: 3060 (ssDNA)
DNA: AAAGAACAAAAAGGATAAAGGGGGAGACGGGGGGAACATGGGG
B3: no binding [9]; binds [10]; binds [11]. B3: binds [12].
